From the supplement of paper PMC10724198
± gives the standard deviation of the averaged measurements.

tested on: Saccharomyces cerevisiae; experiment: protein stability index of tFT-peptide fusion (C-terminal peptide) (PSI (0-1 scale)); higher = more stable (slower turnover); conditions: genetic background: das1 deletion; temperature: 30 C
Description: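 MPS profiling in S. cerevisiae of the yeast C-terminome library: the last 12 aa of each annotated ORF are fused to the C-terminus of a sfGFP-mCherry timer, after a GGGS linker. Cells are FACS-sorted into 8 mCherry/sfGFP bins and deep-sequenced. PSI runs from 0 (unstable) to 1 (stable); wild type and das1Δ backgrounds, two technical replicates each.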

Sequence	protein stability index
SALNKIKADEKK [ACO1 C-terminal 12 aa]	0.689 ± 0.024
SDEEPSSKKRKV [VPS75 C-terminal 12 aa]	0.703 ± 0.035
SDQKGGRSVSTS [YLR001C C-terminal 12 aa]	0.6896 ± 0.0021
SEGLQFLQREKK [MSE1 C-terminal 12 aa]	0.711 ± 0.011
SEVKGYSKLNIV [ASI3 C-terminal 12 aa]	0.695 ± 0.026
SFFIYVNFTVYF [YCR001W C-terminal 12 aa]	0.175 ± 0.036
SFHKEFFDQYRD [ALT1 C-terminal 12 aa]	0.7326 ± 0.0045
SFVKIQDAIKKT [MRPL9 C-terminal 12 aa]	0.7417 ± 0.0063
SGETSDIIFRNY [ADK2 C-terminal 12 aa]	0.74 ± 0.023
SGKRGVGKTDFR [NOG1 C-terminal 12 aa]	0.716 ± 0.00084
SGPVEELVSPSK [IRC8 C-terminal 12 aa]	0.7034 ± 0.0033
SHEQKFENVQKE [STF2 C-terminal 12 aa]	0.711 ± 0.017
SISVLFDSLAAL [PRS1 C-terminal 12 aa]	0.714 ± 0.0093
SKADSYRSVIRH [DLT1 C-terminal 12 aa]	0.667 ± 0.037
SKFGSIFKKVFG [YGR237C C-terminal 12 aa]	0.689 ± 0.017
SKKVICNTFGYN [DDI2 C-terminal 12 aa]	0.689 ± 0.027
SKMLKNKIPLKN [YGL138C C-terminal 12 aa]	0.667 ± 0.0083
SKREFIESLRPK [SKG1 C-terminal 12 aa]	0.707 ± 0.029
SLCKNTIISSSV [YAL063C-A C-terminal 12 aa]	0.693 ± 0.023
SLDDFGVDVDME [PFA4 C-terminal 12 aa]	0.711 ± 0.016
SLDQEIQSLLSK [GPX2 C-terminal 12 aa]	0.6903 ± 0.0018

Sequence	protein stability index
SLFPRDPKRLRP [DPS1 C-terminal 12 aa]	0.7133 ± 0.0054
SLIKQVGVKLDR [JHD2 C-terminal 12 aa]	0.671 ± 0.025
SLPLVSLFIVLA [YJL064W C-terminal 12 aa]	0.267 ± 0.019
SLYTLNYNVKNP [ATG17 C-terminal 12 aa]	0.7157 ± 0.0035
SMHAFLCKIYKR [YCR095W-A C-terminal 12 aa]	0.701 ± 0.02
SMPLYKDVQKDA [RBK1 C-terminal 12 aa]	0.717 ± 0.027
SMTTTNFSDFSL [UPC2 C-terminal 12 aa]	0.6932 ± 0.0047
SNDDFRKMFLGE [PRP24 C-terminal 12 aa]	0.725 ± 0.011
SNSNQHFGNVTF [IME2 C-terminal 12 aa]	0.713 ± 0.0014
SPAHSFEKIQKI [ERF2 C-terminal 12 aa]	0.692 ± 0.015
SPYDWFRNTETP [DER1 C-terminal 12 aa]	0.726 ± 0.035
SQVLPESERRLD [ATG22 C-terminal 12 aa]	0.675 ± 0.013
SRIQNASASGEI [TIM13 C-terminal 12 aa]	0.685 ± 0.015
SRSNSHRTFFKR [FPK1 C-terminal 12 aa]	0.737 ± 0.053
SSLSFLSSFVDI [VAM10 C-terminal 12 aa]	0.708 ± 0.025
SSSGTSSSHLEL [APL6 C-terminal 12 aa]	0.702 ± 0.0062
SSSLSLESFMKS [SNM1 C-terminal 12 aa]	0.748 ± 0.036
SSTVESTNINME [MRT4 C-terminal 12 aa]	0.6903 ± 0.0023
SSVAFSKNLECV [YGR139W C-terminal 12 aa]	0.7073 ± 0.0066
SSYFRIEGKKKK [CUE2 C-terminal 12 aa]	0.68 ± 0.022
STSDFELDDLED [YPL264C C-terminal 12 aa]	0.6965 ± 0.0052

Sequence	protein stability index
STTKQQSQEAVA [YHL026C C-terminal 12 aa]	0.704 ± 0.027
SVEEAFQLKSFD [LAA1 C-terminal 12 aa]	0.713 ± 0.0014
SVFCRNYPSFLL [YMR086C-A C-terminal 12 aa]	0.697 ± 0.011
SVLQRRQSTQNS [HAL1 C-terminal 12 aa]	0.719 ± 0.0076
SVSVQVKWLYSA [YER107W-A C-terminal 12 aa]	0.657 ± 0.012
SVTSGSANFVFY [UTH1 C-terminal 12 aa]	0.7081 ± 0.0034
SYKWLKRETSPL [FRA1 C-terminal 12 aa]	0.712 ± 0.024
TAIVAVVALLLL [DAN4 C-terminal 12 aa]	0.343 ± 0.0084
TAPLIQRKNKKN [RPN8 C-terminal 12 aa]	0.741 ± 0.037
TASGEDSHLLKQ [BRL1 C-terminal 12 aa]	0.669 ± 0.029
TCISVFLEVHQV [YDL206W C-terminal 12 aa]	0.479 ± 0.017
TDIENRNFRYIY [THI73 C-terminal 12 aa]	0.6944 ± 0.0043
TDIEPSAKRQKK [RPF2 C-terminal 12 aa]	0.776 ± 0.048
TDNGSVLPLNPS [BAS1 C-terminal 12 aa]	0.696 ± 0.015
TDTEAEDDESPE [SEC63 C-terminal 12 aa]	0.692 ± 0.025
TDYTRIIKMQSS [SWD1 C-terminal 12 aa]	0.701 ± 0.013
TFCRLCSHIQYF [YAL059C-A C-terminal 12 aa]	0.7214 ± 0.006
TFKGLYAEANSI [YOR111W C-terminal 12 aa]	0.739 ± 0.01
TFKPIYLWALDL [SPP382 C-terminal 12 aa]	0.6938 ± 0.0043
TGLLRGSQKTQD [RPL2A C-terminal 12 aa]	0.7017 ± 0.0061
TISPYIRVCVST [YPR099C C-terminal 12 aa]	0.3891 ± 0.0037

Sequence	protein stability index
TKCEEEIKNLSK [YME2 C-terminal 12 aa]	0.698 ± 0.022
TKGGNAGTKAYN [RTC3 C-terminal 12 aa]	0.679 ± 0.011
TKWWLHYYRKLR [SBE2 C-terminal 12 aa]	0.7418 ± 0.005
TLSMYPRRRFYH [GPG1 C-terminal 12 aa]	0.709 ± 0.011
TPEDADEEEDDE [RPL22B C-terminal 12 aa]	0.6921 ± 0.0011
TPLLLGNKGKPQ [YBL094C C-terminal 12 aa]	0.687 ± 0.019
TQEKLDSLLLMQ [LGE1 C-terminal 12 aa]	0.702 ± 0.011
TREPISYKLDIQ [ERO1 C-terminal 12 aa]	0.678 ± 0.044
TRKWANAAKGMP [YLR407W C-terminal 12 aa]	0.6889 ± 0.0067
TRMNVSHYYIIT [YOL166C C-terminal 12 aa]	0.6573 ± 0.0038
TRRVAARKGKLS [UTR5 C-terminal 12 aa]	0.686 ± 0.0091
TSAFNKLHIVEE [YAK1 C-terminal 12 aa]	0.712 ± 0.024
TSDHLFVVFFFW [YDL034W C-terminal 12 aa]	0.327 ± 0.019
TSHEAVAAKKLI [SHC1 C-terminal 12 aa]	0.673 ± 0.018
TSILEDVDGDDE [YOL050C C-terminal 12 aa]	0.706 ± 0.041
TSPRNICTSLCV [SAL1 C-terminal 12 aa]	0.66358 ± 0.00023
TTDEEVKEKKKR [GLE2 C-terminal 12 aa]	0.6893 ± 0.0049
TTNANVNNSSLS [FKH1 C-terminal 12 aa]	0.715 ± 0.021
TVLKAAKKEGLN [MGR3 C-terminal 12 aa]	0.672 ± 0.015
